Experimental data published in patent US7329737 (DYAX, dated 2008).

biological target: T1, hK1 (human tissue kallikrein 1), recombinant (human, UniProt P06870 25-262); assay: SPR
T1 construct: Expressed in P. pastoris from KLK1 cDNA and purified; enzymatically active; also called KLK1; Recombinant (Pichia) Kallikrein

Binder	Kd [nM]	koff [s⁻¹]	kon [M⁻¹ s⁻¹]
M0112-D04 (Fab, V domains shown) VH: EVQLLESGGGLVQPGGSLRLSCAASGFTFSHYVMVWVRQAPGKGLEWVSGIRSSGGVTAYADSVKGRFTISRDNSKNTLYLQMNSLRAEDTAMYYCARVGVWYGMDVWGQGTTVTVSS VL: AQSALTQPLSVSVALGQTARITCGGNNIGSKNVHWYQQKPGQAPVLVIYRDSNRPSGIPERFSGSNSGNTATLTISGAQAGDEADYYCQVWDSSTVFGGGTKLTVLG	54.2	0.00956	176000
M0136-E12 (Fab, V domains shown) VH: EVQLLESGGGLVQPGGSLRLSCAASGFTFSNYSMQWVRQAPGKGLEWVSSIGPSGGRTWYADSVKGRFTISRDNSKNTLYLQMNSLRAEDTAVYYCARVGVWYGMDVWGQGTTVTVSS VL: DIQMTQSPSSLSASVGDRVTITCRASHVINIDLGWYQQKPGKAPKLLIYGASHLQRGVPSRFSGSGSGTVFTLTISGLQPEDFATYYCLQDSFYPRTFGQGTRLEIKR	2.23	0.00107	481000
M0114-G09 (Fab, V domains shown) VH: EVQLLESGGGLVQPGGSLRLSCAASGFTFSHYAMDWVRQAPGKGLEWVSVIYSSGGKTTYADSVKGRFTISRDNSKNTLYLQMNSLRAEDTAMYYCARVGVWYGMDVWGQGTTVTVSS VL: AQSALTQPASVSGSPGQSITISCTGTSSDVGSYKLVSWYQQHPGKAPKLMIYEGSKRPSGVSNRFSGSKSGNTASLTISGLQAEDEADYYCCSYAGSSTWVFGGGTKLTVLG	1.46	0.00062	424000
M0106-D06 (Fab, V domains shown) VH: EVQLLESGGGLVQPGGSLRLSCAASGFTFSYYLMGWVRQAPGKGLEWVSSIGPSGGTTKYADSVKGRFTISRDNSKNTLYLQMNSLRAEDTAVYYCARRGLGAAFDYWGQGTLVTVSS VL: DIQMTQSPSSVSASVGDRVTITCRASQGISSWLAWYQQKPGKAPKLLIYAASSLQSGVPSRFSGSGSGTDFTLTISSLQPEDFATYYCQQANSFPYTFGQGTKLEIKR	123	0.019	154000
M0110-D06 (Fab, V domains shown) VH: EVQLLESGGGLVQPGGSLRLSCAASGFTFSWYRMAWVRQAPGKGLEWVSYIGPSGGSTSYADSVKGRFTISRDNSKNTLYLQMNSLRAEDTATYYCARVGTFYGMDVWGQGTTVTVSS VL: DIQMTQSPSTLSASLGDRVIITCRASQGIRSWLAWYQQKPGKAPKLLIYAASSLQSGVPSRFSGSGSGTDFTLTISSLQPEDFATYYCQQSYSTPWTFGQGTKVEIKR	232	0.0175	75600
M0138-A03 (Fab, V domains shown) VH: EVQLLESGGGLVQPGGSLRLSCAASGFTFSFYLMFWVRQAPGKGLEWVSGIYPSGGQTVYADSVKGRFTISRDNSKNTLYLQMNSLRAEDTAVYYCARAIGAGSSFWGQGTLVTVSS VL: DIQMTQSPSSVSASVGDRVTITCRASQGISSWLAWYQQKPGKAPKLLIYAASSLQSGVPSRFSGSGSGTDFTLTISSLQPEDFATYYCQQANSFPHTFGQGTKLEIKR	1.71	0.000325	190000
M0116-A08 (Fab, V domains shown) VH: EVQLLESGGGLVQPGGSLRLSCAASGFTFSYYMMGWVRQAPGKGLEWVSSIYTSGGYTKYADSVKGRFTISRDNSKNTLYLQMNSLRAEDTAVYYCARASIYYGMDVWGQGTTVTVSS VL: DIQMTQSPGTLSLSPGERATLSCRASQSVSNSYLAWYQQRPGQAPRLLIYGASSRATGIPDRFSGSGSGTEFTLTISRLEPEDFAVYYCQQFGSSTGYTFGQGTKLELKR	88.3	0.00994	113000
M0103-H07 (Fab, V domains shown) VH: EVQLLESGGGLVQPGGSLRLSCAASGFTFSHYGMYWVRQAPGKGLEWVSSIYPSGGWTNYADSVKGRFTISRDNSKNTLYLQMNSLRAEDTAVYYCARRGSWGAFDIWGQGTMVTVSS VL: DIQMTQSPSSLSASVGDRVAITCRASQSIDTYLNWYQQKPGKAPKLLIYAASKLEDGVPSRFSGSGTGTDFTLTIRSLQPEDFATYYCQPYNTYPITFGQGTRLEIKR	85.7	0.0086	100000
M0102-D07 (Fab, V domains shown) VH: EVQLLESGGGLVQPGGSLRLSCAASGFTFSRYWMWWVRQAPGKGLEWVSSIGPSGGATRYADSVKGRFTISRDNSKNTLYLQMNSLRAEDTAVYYCTTGSAGNWGQGTLVTVSS VL: DIQMTQSPGTLSLSPGERATLSCGASQSVSTTYIAWYQHKPGQPPRLLIYGASNRATGIPDRFRGSGSGTDFTLTISRLEPEDFAVYYCQQYGSSPYTFGQGTKLEIKR	78.6	0.0122	155000

The remaining binders from weak to strong by Kd, led by results:

Kd [nM]	koff [s⁻¹]	kon [M⁻¹ s⁻¹]	Binder
372	0.286	768000	M0124-C04 (Fab, V domains shown) VH: EVQLLESGGGLVQPGGSLRLSCAASGFTFSWYLMGWVRQAPGKGLEWVSVIGPSGGLTKYADSVKGRFTISRDNSKNTLYLQMNSLRAEDTAVYYCARFRGYYGMDVWGQGTTVTVSS VL: not shown
152	0.00214	14100	M0113-D05 (Fab, V domains shown) VH: EVQLLESGGGLVQPGGSLRLSCAASGFTFSHYIMMWVRQAPGKGLEWVSSIYPSGGSTIYADSVKGRFTISRDNSKNTLYLQMNSLRAEDTAVYYCASATEGYYYGMDVWGQGTTVTVSS VL: not shown
72.7	0.0164	225000	M0116-E08 (Fab, V domains shown) VH: EVQLLESGGGLVQPGGSLRLSCAASGFTFSRYPMIWVRQAPGKGLEWVSVIYPSGGMTKYADSVKGRFTISRDNSKNTLYLQMNSLRAEDTAVYYCARVGSYGSLGYWGQGTLVTVSS VL: DIQMTQSPSSLSASVGDRVTITCLASQSISSYLNWYQQKPGKAPKLLIYDASSLESGVPSRFSGSGSGTDFTLTISSLQPEDFAIYYCQQFNGYPPITFGQGTRLEIKR
61.3	0.0192	314000	M0104-D12 (Fab, V domains shown) VH: EVQLLESGGGLVQPGGSLRLSCAASGFTFSHYAMFWVRQAPGKGLEWVSSIWPSGGKTMYADSVKGRFTISRDNSKNTLYLQMNSLRAEDTATYYCARGGSYLAFDIWGQGTMVTVSS VL: DIQMTQSPSSLSASVGDRVTITCRASLSVSGYLNWYQHKPGRAPNLLIYATSSLQSGVPSRFSGSGSGTDFTLTVSSLQPEDLATYYCQQSYSSPYTFGQGTKVEIKG
58.4	0.0134	230000	M0108-E10 (Fab, V domains shown) VH: EVQLLESGGGLVQPGGSLRLSCAASGFTFSRYRMVWVRQAPGKGLEWVSSIYPSGGYTKYADSVKGRFTISRDNSKNTLYLQMNSLRAEDTAVYYCARVITYNNFDSWGQGTLVTVSS VL: DIQMTQSPGTLSLSPGERATLSCRASQTVSSTYLAWYQQKPGQAPRLLIYGASSRATGIPDRFSGGGSGTDFTLTISRLEPEDFAVYYCQQYGSSPPRYTFGQGTKLEIKR
43.5	0.00628	144000	M0102-C02 (Fab, V domains shown) VH: EVQLLESGGGLVQPGGSLRLSCAASGFTFSHYLMHWVRQAPGKGLEWVSSIYPSGGKTQYADSVKGRFTISRDNSKNTLYLQMNSLRAEDTAVYYCARVFGYYDFWSGYPGAFDYWGQGTLVTVSS VL: DIQMTQSPSSLSASVGDRVTITCRASQGISSSLAWYQQKPGKVPKLLIYAASTLQSGVPSRFSGSGSGTDFTLTISSLQPEDFATYYCQQSYSTPWTFGQGTKVEIKR
42.5	0.0121	286000	M0113-G11 (Fab, V domains shown) VH: EVQLLESGGGLVQPGGSLRLSCAASGFTFSHYMMQWVRQAPGKGLEWVSGIGPSGGWTKYADSVKGRFTISRDNSKNTLYLQMNSLRAEDTALYYCARLNYGDYVWGQGTLVTVSS VL: not shown
2.09	0.00069	330000	M0108-D11 (Fab, V domains shown) VH: EVQLLESGGGLVQPGGSLRLSCAASGFTFSWYVMTWVRQAPGKGLEWVSVIYPSGGATKYADSVKGRFTISRDNSKNTLYLQMNSLRAEDTAVYYCARRGAGGMDVWGQGTTVTVSS VL: AQSVLTQPASVSGSPGQSITISCTGTNTDVGGYNLVSWYQQHPGKAPKLIIYEVSNRPSGVSNRFSGSKSGNTASLTISGLQAEDEVDYYCGSYTSSSTHVFGSGTKVTVLG
2.03	0.000396	195000	M0135-H01 (Fab, V domains shown) VH: EVQLLESGGGLVQPGGSLRLSCAASGFTFSAYLMAWVRQAPGKGLEWVSSIRPSGGETRYADSVKGRFTISRDNSKNTLYLQMNSLRAEDTAVYYCTRDQKGYPDSSSFRRYYYYYGMDVWGQGTTVTVSS VL: not shown
1.3	0.000444	342000	M0132-C08 (Fab, V domains shown) VH: EVQLLESGGGLVQPGGSLRLSCAASGFTFSLYFMTWVRQAPGKGLEWVSSISSSGGSTKYADSVKGRFTISRDNSKNTLYLQMNSLRAEDTAVYYCARGGQWLAFDYWGQGTLVTVSS VL: not shown
1.04	0.000325	311000	M0131-D01 (Fab, V domains shown) VH: EVQLLESGGGLVQPGGSLRLSCAASGFTFSHYNMNWVRQAPGKGLEWVSVIYPSGGQTHYADSVKGRFTISRDNSKNTLYLQMNSLRAEDTAVYYCARRGIWHSFDIWGQGTMVTVSS VL: DIQMTQSPGTLSLSPGERASLSCRASQSVSSNYLSWYQQKPGQAPRLLIYGTSNRASGIPVRFSGSGSGTDFTLTISRLEPEDFAVYYCQQYGGAPLFIFGPGTRVDIKR
0.46	0.000117	255000	M0131-B05 (Fab, V domains shown) VH: EVQLLESGGGLVQPGGSLRLSCAASGFTFSHYVMSWVRQAPGKGLEWVSYIYPSGGKTHYADSVKGRFTISRDNSKNTLYLQMNSLRAEDTAVYYCARVGVWYGMDVWGQGTTVTVSS VL: AQYELTQPASVSGSPGQSITISCTGTSSDIGAYNYVSWYQQHPGKAPKLMIYDVSNRPSGVSNRFSGSKSGNTASLTISGLQAEDEADYYCSSYRSSSLMFGGGTKLTVLG
